{
  "source": "paper PMC2121029",
  "key": {"[1]": {"biological_target": "beta-actin from bovine erythrocytes (bovine) (UniProt P60712)", "test": "kinetic simulation"}, "[2]": {"biological_target": "beta-actin from bovine erythrocytes (bovine) (UniProt P60712)", "test": "shift of the critical concentration for actin polymerization"}, "[3]": {"biological_target": "beta-actin from bovine erythrocytes (bovine) (UniProt P60712)"}, "[4]": {"biological_target": "alpha-actin from chicken skeletal muscle (chicken) (UniProt P68139)", "test": "actin uncapping assay"}, "[5]": {"biological_target": "alpha-actin from chicken skeletal muscle (chicken) (UniProt P68139)", "test": "kinetic simulation"}},
  "note": "Where two headings read alike, the source gives them in different places.",
  "data": [
    {"substance": "capping protein of chicken kidney and brain containing the beta2 subunit (CP-beta2) (from UniProt P13127;P28497;P14315-2) (complex)", "values": [
      {"measurement": "koff", "setting": "[1]", "result": 0.00095, "unit": "s⁻¹"},
      {"measurement": "kon", "setting": "[1]", "result": "3.9e+06", "unit": "M⁻¹ s⁻¹"},
      {"measurement": "Kd", "setting": "[2]", "result": 80, "unit": "pM"},
      {"measurement": "koff", "setting": "[3]", "result": 0.00031, "unit": "s⁻¹"}
    ]},
    {"substance": "capping protein of chicken skeletal (pectoral) muscle containing the beta1 subunit (CP-beta1) (from UniProt P13127;P28497;P14315-1) (complex)", "values": [
      {"measurement": "half-life of a capped barbed end with PIP2", "setting": "[4]", "result": 46, "unit": "s"},
      {"measurement": "koff", "setting": "[5]", "result": 0, "unit": "s⁻¹"}
    ]}
  ]
}
